Six molecules from patent US20130136748A1 (Ablynx, published 2013) can be followed below.

Values joined by “and” are separate entries in the source; they are usually repeats but may differ in a detail not shown here. Equal values may be shown once.

The target of experiment [1] is T1, human HER3-Fc (R&D Systems, 348-RB) (human, UniProt P21860 20-643).
T1 construct: Bought; also called hHER3-Fc; Fc-HER3; Fc part of the bought chimera not given, not described
Put plainly: alphascreen, competitor biotinylated 18G11.

The target of experiment [2] is T1, human HER3-Fc (R&D Systems, 348-RB). Put plainly: 18G11 competition alphascreen.
The target of experiment [3] is T2, hHER3 ECD (human HER3 extracellular domain) (human, UniProt P21860 20-643).
T2 construct: also called recombinant HER3-ECD
The experiment in a line: SPR off rate.

Experiment [4] has as its target T3, hHER3 full length (human, UniProt P21860 20-1342). Put plainly: cell-based or functional assay.
Experiment [5] concerns the target T4, human HER4 (human, UniProt Q15303 26-1308). Put plainly: FACS CHO-HER4, 667 nM.
The target in experiment [6] is T3, hHER3 full length. Put plainly: cell-based or functional assay. The source holds these as a separate data set.
Experiment [7] concerns the target T3, hHER3 full length. The experiment in a line: FACS competition with HRG1-β1-EGF, CHO-HER3.
Experiment [8] has as its target T3, hHER3 full length. Put plainly: FACS, 400 nM, competitor 23F05-biotin. In general terms: Flow cytometry measures light scatter and fluorescence of single cells or particles in a stream.
Experiment [9] has as its target T3, hHER3 full length. Put plainly: FACS, 400 nM, competitor 21B02-biotin.
The target in experiment [10] is T3, hHER3 full length. The experiment in a line: FACS, 400 nM, competitor 17C08-biotin.
For experiment [11], the target named is T3, hHER3 full length. The experiment in a line: FACS, 400 nM, competitor 04F10-biotin.
Experiment [12] concerns the target T4, human HER4. The experiment in a line: FACS CHO-HER4, 222 nM.
The target in experiment [13] is T1, human HER3-Fc (R&D Systems, 348-RB). Put plainly: HRG competition alphascreen.
For experiment [14] the target is unchanged. The experiment in a line: HRG competition alphascreen. This is another data set of the same source. A general note: Alpha assays give light when donor and acceptor beads are brought close together.
Experiment [15] has as its target T5, human HER1 (human, UniProt P00533 25-1210).
T5 construct: also called EGFR; ErbB1
The experiment in a line: FACS CHO-HER1, 2000 nM.

Experiment [16] has as its target T6, human HER2 (human, UniProt P04626 23-1255).
T6 construct: also called hHER2
The experiment in a line: FACS, CHO-HER2.

In experiment [17] the target is T5, human HER1. Put plainly: FACS, CHO-HER1.
The target in experiment [18] is T7, cHER3ECD (Maccaca fascicularis HER3 extracellular domain) (Macaca fascicularis, UniProt P21860 20-643 (human entry)).
T7 construct: also called cyno HER3ECD; cyno HER3-ECD
T7 chain: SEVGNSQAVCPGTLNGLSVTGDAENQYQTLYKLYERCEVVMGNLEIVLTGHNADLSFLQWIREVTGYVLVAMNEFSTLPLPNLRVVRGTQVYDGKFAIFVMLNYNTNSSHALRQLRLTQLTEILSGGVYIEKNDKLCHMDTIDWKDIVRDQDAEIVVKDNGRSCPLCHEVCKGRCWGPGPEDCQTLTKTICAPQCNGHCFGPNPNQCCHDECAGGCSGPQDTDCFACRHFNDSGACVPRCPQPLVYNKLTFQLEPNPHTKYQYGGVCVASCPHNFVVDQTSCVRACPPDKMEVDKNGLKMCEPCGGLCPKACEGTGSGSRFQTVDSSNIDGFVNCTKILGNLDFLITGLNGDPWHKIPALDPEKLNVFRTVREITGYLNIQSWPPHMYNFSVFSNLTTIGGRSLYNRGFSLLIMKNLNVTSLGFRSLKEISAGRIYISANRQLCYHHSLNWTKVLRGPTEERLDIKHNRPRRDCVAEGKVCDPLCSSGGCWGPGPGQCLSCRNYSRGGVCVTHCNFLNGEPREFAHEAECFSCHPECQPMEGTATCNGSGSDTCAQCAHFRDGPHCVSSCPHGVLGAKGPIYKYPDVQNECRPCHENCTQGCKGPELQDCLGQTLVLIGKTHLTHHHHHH
The experiment in a line: ELISA, coated cHER3-ECD. A general note: ELISA stands for enzyme-linked immunosorbent assay.

Experiment [19] has as its target T6, human HER2. The experiment in a line: FACS CHO-HER2, 667 nM.
Experiment [20] addresses T5, human HER1. Put plainly: FACS CHO-HER1, 667 nM.
The target of experiment [21] is T6, human HER2. Put plainly: FACS CHO-HER2, 2000 nM.
In experiment [22] the target is T3, hHER3 full length. The experiment in a line: cell-based or functional assay. The source holds these as a separate data set.
Experiment [23] deals with T4, human HER4. The experiment in a line: FACS, CHO-HER4.
Experiment [24] has as its target T8, Chicken Her3 (AA1-25 human, AA26-642 chicken) (chicken (human signal sequence)).
T8 construct: Transmembrane and extracellular regions only, on transiently transfected HEK293 cells; also called full length extracellular chicken HER3
T8 chain: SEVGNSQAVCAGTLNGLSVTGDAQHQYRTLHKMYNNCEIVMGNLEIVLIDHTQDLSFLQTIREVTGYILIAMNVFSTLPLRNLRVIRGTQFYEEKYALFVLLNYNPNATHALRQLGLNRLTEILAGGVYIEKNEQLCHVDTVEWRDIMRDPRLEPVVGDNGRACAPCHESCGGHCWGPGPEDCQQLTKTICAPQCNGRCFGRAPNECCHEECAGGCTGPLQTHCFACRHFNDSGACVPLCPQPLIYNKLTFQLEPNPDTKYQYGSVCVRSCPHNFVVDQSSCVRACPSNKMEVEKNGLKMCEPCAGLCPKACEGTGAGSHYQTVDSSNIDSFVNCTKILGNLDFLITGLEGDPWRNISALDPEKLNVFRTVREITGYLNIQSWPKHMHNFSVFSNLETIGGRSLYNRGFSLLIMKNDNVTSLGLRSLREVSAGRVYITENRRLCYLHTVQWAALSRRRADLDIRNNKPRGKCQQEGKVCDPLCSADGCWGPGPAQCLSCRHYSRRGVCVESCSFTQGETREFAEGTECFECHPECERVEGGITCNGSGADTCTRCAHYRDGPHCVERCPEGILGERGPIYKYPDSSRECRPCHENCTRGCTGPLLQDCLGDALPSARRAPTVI
The experiment in a line: FACS, HEK293 with chicken HER3.

Experiment [25] has as its target T3, hHER3 full length. Put plainly: FACS, 400 nM, competitor 04C07-biotin.
The target of experiment [26] is T6, human HER2. Put plainly: FACS CHO-HER2, 222 nM.
The target in experiment [27] is T3, hHER3 full length. Put plainly: cell-based or functional assay. This is another data set of the same source.
The target in experiment [28] is T4, human HER4. Put plainly: FACS CHO-HER4, 2000 nM.
Experiment [29] has as its target T5, human HER1. The experiment in a line: FACS CHO-HER1, 222 nM.
For experiment [30], the target named is T2, hHER3 ECD (human HER3 extracellular …). Put plainly: ELISA, coated hHER3-ECD.
Experiment [31] deals with T1, human HER3-Fc (R&D Systems, 348-RB). The experiment in a line: SPR, HER3-Fc captured by anti-Fc.
Experiment [32] has as its target T3, hHER3 full length. Put plainly: FACS, 400 nM, competitor 18E08-biotin.

T4 sequence (Q15303 26-1308 limits assumed): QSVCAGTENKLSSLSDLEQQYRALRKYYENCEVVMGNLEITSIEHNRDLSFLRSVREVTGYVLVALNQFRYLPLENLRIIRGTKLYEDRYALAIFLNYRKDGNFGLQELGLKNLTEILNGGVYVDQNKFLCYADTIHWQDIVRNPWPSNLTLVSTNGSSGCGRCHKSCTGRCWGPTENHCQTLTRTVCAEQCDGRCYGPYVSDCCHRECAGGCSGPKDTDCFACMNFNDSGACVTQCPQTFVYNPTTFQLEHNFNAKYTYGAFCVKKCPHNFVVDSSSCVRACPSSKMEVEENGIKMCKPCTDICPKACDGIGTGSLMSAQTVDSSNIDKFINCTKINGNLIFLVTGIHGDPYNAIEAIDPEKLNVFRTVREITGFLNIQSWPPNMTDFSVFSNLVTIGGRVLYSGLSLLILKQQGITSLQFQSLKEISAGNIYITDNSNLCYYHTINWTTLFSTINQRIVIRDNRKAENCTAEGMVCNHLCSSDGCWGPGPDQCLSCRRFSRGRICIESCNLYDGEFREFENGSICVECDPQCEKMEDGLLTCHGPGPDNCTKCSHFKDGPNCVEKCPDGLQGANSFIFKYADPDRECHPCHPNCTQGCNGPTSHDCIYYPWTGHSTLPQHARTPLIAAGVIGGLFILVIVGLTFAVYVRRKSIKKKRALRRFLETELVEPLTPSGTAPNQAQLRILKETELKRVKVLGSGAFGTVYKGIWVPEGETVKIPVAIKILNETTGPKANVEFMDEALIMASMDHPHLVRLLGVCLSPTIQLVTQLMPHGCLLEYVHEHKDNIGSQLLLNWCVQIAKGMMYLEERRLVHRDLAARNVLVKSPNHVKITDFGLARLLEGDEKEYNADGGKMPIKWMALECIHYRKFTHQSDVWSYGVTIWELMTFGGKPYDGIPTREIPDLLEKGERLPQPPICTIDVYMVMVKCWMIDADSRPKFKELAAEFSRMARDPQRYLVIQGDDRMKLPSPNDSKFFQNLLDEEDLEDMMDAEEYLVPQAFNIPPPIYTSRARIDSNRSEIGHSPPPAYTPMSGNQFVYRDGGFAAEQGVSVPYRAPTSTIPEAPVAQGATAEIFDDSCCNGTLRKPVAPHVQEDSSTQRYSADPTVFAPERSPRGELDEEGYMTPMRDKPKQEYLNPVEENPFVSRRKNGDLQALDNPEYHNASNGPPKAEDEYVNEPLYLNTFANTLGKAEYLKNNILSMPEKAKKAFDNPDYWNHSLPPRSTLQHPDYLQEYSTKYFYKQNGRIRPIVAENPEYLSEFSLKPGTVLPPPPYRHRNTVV

B1: HER3MS0050 (VHH)
VHH: EVQLVESGGGLVQPGGSLRLSCAASGTLFKINAMGWYRQAPGKRRELVALITSSDTTDYAESVEGRFTISRDNTWNAVYLQMNSLRPEDTAVYYCHSDHYSMGVPEKRVIMYGQGTLVTVSS
notes: Kabat numbering; also called 18G11 basic variant
As a reminder, the IC50 is the concentration needed to halve the response being measured. Regarding B1, the IC50 in experiment [1] turned out to be 3.2 nM.

B2: HER3MS00125 (VHH)
VHH: EVQLVESGGGLVQPGGSLRLSCAASGTLFKINAMGWYRQAPGKQRELVALITSSDTTDYAEDVKGRFTISRDNSWNTVYLQMNSLRPEDTAVYYCHSDHYSLGVPEKRVILYGQGTLVTVSS
notes: 18G11 second round variant with R44Q
Broadly, the koff is the rate constant with which the complex falls apart. Turning to B2, the IC50 in experiment [2] came to 14 nM. Moreover, in experiment [3], the koff is 0.0012 s⁻¹.

B3: HER3MS00211 (VHH)
VHH: EVQLVESGGGLVQPGGSLRLSCAASGTLFKINAMGWYRQAPGKRRELVALITSSDTTDYADSVKGRFTISRDNSWNTVYLQMNSLRPEDTAVYYCHSDHYSLGVPEKRVILYGQGTLVTVSS
notes: 18G11 second round variant without R44Q (selected)
Molecule B3 returned a half-inhibitory concentration (IC50) in experiment [2] of 5.4 nM. In [3], this molecule showed a dissociation rate constant (koff) of 0.00072 s⁻¹. In addition, the “IC50 pHER3 blocking, HRG stimulated MCF7” value in experiment [4] was 1.79e-08 M and 2e-08 M.

B4: 21F06 (VHH)
VHH: EVQLVESGGGLVQAGGSLRLSCAASGRTYYLNAMGWFRQGPGKDREFVAAIDWSDGNKDYADSVKGRFTISRDNAKNTVYLQMNSLKPEDTAVYYCAADTPPWGPMIYIESYDSWGQGTQVTVSS
notes: c-myc, His6-tagged form as expressed; also called 21F6; HER3MS21F06
A word on the % inhibition: it is the drop in the measured response relative to a control, in per cent. For orientation: EC50 means the concentration needed to bring the measured effect to its halfway point. Read a high EC50 as a less potent agent. For orientation: Kd means the constant that tells how readily two partners part at equilibrium. A high value points to weaker binding. One may read the kon as the rate constant with which the complex forms. In the case of B4, the MCF was determined as 225 in experiment [5]; 149 in experiment [12]; 74 in [15]; 229 in experiment [19]; 110 in experiment [20]; 409 in experiment [21]. Further, the MCF in [26] was found to be 84; in experiment [28], 263; in [29], 107. In addition, the “IC50 pHER3, HRG1-β1 stimulated MCF7” value in [6] came to 8.74e-09 M. Also, the results for the IC50 in [7], in experiment [13] and in [14] were 10.1 nM, 0.25 nM and 0.0135 nM, respectively. For the same molecule, the “% competition” value in [8] was 100%; in [9], 100%; in experiment [10], 9%; in experiment [11], 15%; in experiment [25] it was 11%. The “% inhibition” value in [14] was determined as 104%. The binding result in experiment [16] was “no binding (tested: 2000 nM)”; in [17], “no binding (tested: 2000 nM)”; in experiment [23], “no binding (tested: 2000 nM)”; in [24], “binds”. For the same molecule, the results for the EC50 in experiment [18] and in experiment [30] were 0.32 nM and 0.3 nM, respectively. Also, the “IC50, HRG1-β1 induced pAkt, MCF-7” value in experiment [22] was found to be 2.31e-08 M. In addition, the “IC50, HRG1-β1 induced pERK1/2, MCF-7” value in experiment [22] was 1.11e-07 M. The “IC50, HRG1-β1 induced pHER3, MCF-7” value in experiment [27] is 6.79e-09 M. Besides, the “IC50, HRG1-β1 induced pHER3, MDA-MB468” value in experiment [27] came to 7.94e-09 M. The same molecule had a Kd in experiment [31] of 0.12 nM. The kon in experiment [31] was 1.8e+07 M⁻¹ s⁻¹.

B5: HER3MS00049 (VHH)
VHH: EVQLVESGGGLVQPGGSLRLSCAASGRTYYLNAMGWFRQAPGKEREFVAAIDWSDGNKDYADSVKGRFTISRDNSKNTVYLQMNSLRPEDTAVYYCAADTPPWGPMIYIESYDSWGQGTLVTVSS
notes: 21F06 basic + G40A + D44E; also called HER3MS0049
For B5, in experiment [6], the “IC50 pHER3, HRG1-β1 stimulated MCF7” value stood at 2.79e-09 M. In experiment [13], the half-maximal inhibitory concentration (IC50) is 0.25 nM.

B6: 23F05 (VHH)
VHH: EVQLVESGGGLVQAGGSLRLSCAASGFTFDGYAIGWFRQAPGKEREGVSCISGGDGRSYYADSVKGRFTVSSDNAKNTLYLEMNSLKPEDTAVYYCAVIWGPYCSDSYEYLYEYDYWGQGTQVTVSS
For B6, the MCF in experiment [5] came to 101; in experiment [12] it was 343; in [15], 67; in experiment [19] it was 264; in [20], 67; in [21] it was 832. Besides, the values for the MCF in [26], in [28] and in experiment [29] were 97, 95 and 153, respectively. This molecule also returned an IC50 in [7] of 9.44 nM. For the same molecule, the “% competition” value amounted to 100% in experiment [8]; 100% in [9]; 8% in experiment [10]; 15% in [11]; 6% in [25]; 16% in [32]. Also, the binding result in [16] is recorded as “no binding (tested: 2000 nM)”; in experiment [17], “no binding (tested: 2000 nM)”; in [23], “no binding (tested: 2000 nM)”; in [24], “binds”. In addition, the EC50 in experiment [18] amounted to 0.44 nM; in experiment [30] it was 0.46 nM. Moreover, the “IC50, HRG1-β1 induced pAkt, MCF-7” value in experiment [22] was 4.65e-08 M. For the same molecule, the “inhibition of HRG1-β1 induced pERK1/2, MCF-7” value in [22] is under 50 % inhibition. Further, the “IC50, HRG1-β1 induced pHER3, MCF-7” value in experiment [27] was 1.77e-08 M. In addition, in [27], the “IC50, HRG1-β1 induced pHER3, MDA-MB468” value is 2.41e-08 M. Besides, in experiment [31], the Kd was 0.99 nM. Moreover, the association rate constant (kon) in [31] turned out to be 3.1e+06 M⁻¹ s⁻¹.
